Source: the supplement of paper PMC7125110
± gives the standard error. For some of these results: This sample holds only a part of the variants without activity.

B1: glmS ribozyme (parent)
chain: AUAAAAGCGCCAGAACUACAGAAAUGUAGUUGACGAGGAGGAGGUUUAUCGAAUUUUCGGCGGAUGCCUCCAAA

Assays:
Conditions in all cases: with glucosamine-6-phosphate
glucosamine-6-phosphate [1] = variants of: B1; assay: kcat; higher = faster cleavage; RNA array
Method in brief: (§1)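 Tiles bearing barcoded ribozyme variants, transcribed in situ by E. coli RNA polymerase on sequenced MiSeq chips, were imaged over ~14 h at 37 °C using a hybridised Cy3 probe. Glucosamine-6-phosphate was supplied at 40 μM to 10 mM in HEPES/KCl/Mg(OAc)2 buffer. kobs came from one- or two-exponential decay fits to normalised per-tile medians, and weighted Michaelis–Menten fits then provided kcat and KM.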

glucosamine-6-phosphate [2] = variants of: B1; assay: self-cleavage kobs at 40 uM GlcN6P; higher = faster cleavage; RNA array
Method in brief: as §1

glucosamine-6-phosphate [3] = variants of: B1; assay: self-cleavage kobs at 640 uM GlcN6P; higher = faster cleavage; RNA array
Method in brief: as §1

glucosamine-6-phosphate [4] = variants of: B1; assay: self-cleavage kobs at 2500 uM GlcN6P; higher = faster cleavage; RNA array
Method in brief: as §1

glucosamine-6-phosphate [5] = variants of: B1; assay: self-cleavage kobs at 10000 uM GlcN6P; higher = faster cleavage; RNA array
Method in brief: as §1

glucosamine-6-phosphate [6] = variants of: B1; assay: self-cleavage kobs at 160 uM GlcN6P; higher = faster cleavage; RNA array
Method in brief: as §1

glucosamine-6-phosphate [7] = variants of: B1; assay: KM; higher = weaker cofactor use; RNA array
Method in brief: as §1

Variant | kcat (glucosamine-6-phosphate [1]) | self-cleavage kobs at 40 uM GlcN6P (glucosamine-6-phosphate [2]) | self-cleavage kobs at 640 uM GlcN6P (glucosamine-6-phosphate [3]) | self-cleavage kobs at 2500 uM GlcN6P (glucosamine-6-phosphate [4]) | self-cleavage kobs at 10000 uM GlcN6P (glucosamine-6-phosphate [5]) | self-cleavage kobs at 160 uM GlcN6P (glucosamine-6-phosphate [6]) | KM (glucosamine-6-phosphate [7])
U30A U55A C71U | 0.00347 ± 0.0015 s⁻¹ | 0.000138 ± 3.7e-05 s⁻¹ | 0.00113 ± 0.00035 s⁻¹ | 0.00197 ± 0.00068 s⁻¹ | 0.00566 ± 0.0018 s⁻¹ |  | 
A64U G66A C67U | 1.79e-05 ± 6.9e-06 s⁻¹ | < 1e-05 s⁻¹ |  |  |  |  | 
C34G C67G | 4.36e-05 ± 2.1e-05 s⁻¹ |  |  | 4.65e-05 ± 1.9e-05 s⁻¹ |  |  | 
U30A G32A | 0.00147 ± 0.00062 s⁻¹ |  | 0.000192 ± 3.2e-05 s⁻¹ | 0.000485 ± 9.6e-05 s⁻¹ | 0.0012 ± 0.00022 s⁻¹ | 0.000109 ± 2.5e-05 s⁻¹ | 
U55C U57C | 9.84e-05 ± 1.9e-05 s⁻¹ |  |  | 8.25e-05 ± 1.9e-05 s⁻¹ | 8.27e-05 ± 1.2e-05 s⁻¹ |  | 
A12C G44A | 0.000291 ± 2.6e-05 s⁻¹ |  | 8.35e-05 ± 1.2e-05 s⁻¹ | 0.000204 ± 4e-05 s⁻¹ | 0.00024 ± 3.8e-05 s⁻¹ |  | 1580 ± 270 µM
A6G C11A | 2.52e-05 ± 7.7e-06 s⁻¹ |  |  |  |  |  | 
A48C U56G | 0.000214 ± 2.7e-05 s⁻¹ |  |  | 6.9e-05 ± 1.3e-05 s⁻¹ | 0.000135 ± 2.8e-05 s⁻¹ |  | 5570 ± 1300 µM
C16U G63A | < 1e-05 s⁻¹ | < 1e-05 s⁻¹ |  | < 1e-05 s⁻¹ | < 1e-05 s⁻¹ |  | 
C11A G32U | 5.22e-05 ± 2.5e-05 s⁻¹ | < 1e-05 s⁻¹ |  |  |  | < 1e-05 s⁻¹ | 
C58A C71G | 3.85e-05 ± 8.3e-06 s⁻¹ | < 1e-05 s⁻¹ | 3.58e-05 ± 1.5e-05 s⁻¹ | 4.63e-05 ± 1.1e-05 s⁻¹ | 2.57e-05 ± 1.2e-05 s⁻¹ |  | 
U47A C70G | 0.000131 ± 1.7e-05 s⁻¹ |  | 0.00011 ± 1.3e-05 s⁻¹ |  | 0.000128 ± 2.5e-05 s⁻¹ | 9.75e-05 ± 2.2e-05 s⁻¹ | 
U57A G63A | < 1e-05 s⁻¹ |  |  |  | < 1e-05 s⁻¹ | < 1e-05 s⁻¹ | 
U54A C61U | 3.19e-05 ± 4.4e-07 s⁻¹ | < 1e-05 s⁻¹ |  |  | 2.74e-05 ± 1e-05 s⁻¹ |  | 1620 ± 86 µM
A42U | 0.00024 ± 2.1e-05 s⁻¹ | < 1e-05 s⁻¹ | 7.53e-05 ± 1.4e-06 s⁻¹ | 0.000187 ± 3.7e-06 s⁻¹ | 0.000203 ± 2.9e-06 s⁻¹ | 2.06e-05 ± 1.8e-06 s⁻¹ | 1350 ± 270 µM
G37U C70A | 1.53e-05 ± 2e-06 s⁻¹ |  |  |  |  |  | 
C11U U47G | 0.000176 ± 3.3e-05 s⁻¹ |  | 7.97e-05 ± 1.3e-05 s⁻¹ | 0.000191 ± 3.3e-05 s⁻¹ | 0.000149 ± 2.2e-05 s⁻¹ |  | 
G13A U31A | 0.00146 ± 4.2e-05 s⁻¹ |  | 9.06e-05 ± 1.9e-05 s⁻¹ | 0.000292 ± 6.9e-05 s⁻¹ | 0.00074 ± 0.0001 s⁻¹ |  | 9800 ± 410 µM
A14C U31A A64C | 1.75e-05 ± 3.8e-06 s⁻¹ |  |  |  |  | < 1e-05 s⁻¹ | 
G51U U57G | < 1e-05 s⁻¹ |  |  |  | < 1e-05 s⁻¹ |  | 

Variant | kcat (glucosamine-6-phosphate [1]) | self-cleavage kobs at 40 uM GlcN6P (glucosamine-6-phosphate [2]) | self-cleavage kobs at 640 uM GlcN6P (glucosamine-6-phosphate [3]) | self-cleavage kobs at 2500 uM GlcN6P (glucosamine-6-phosphate [4]) | self-cleavage kobs at 10000 uM GlcN6P (glucosamine-6-phosphate [5]) | self-cleavage kobs at 160 uM GlcN6P (glucosamine-6-phosphate [6]) | KM (glucosamine-6-phosphate [7])
C10A G32U A53U C67U | 1.23e-05 ± 4.1e-06 s⁻¹ |  |  |  |  |  | 
A6U U57G C67G | 2.88e-05 ± 7.6e-06 s⁻¹ |  |  |  |  |  | 
U56C C70U | 0.000177 ± 5e-06 s⁻¹ |  | 4.77e-05 ± 6.2e-06 s⁻¹ | 0.000111 ± 9.3e-06 s⁻¹ | 0.00015 ± 1e-05 s⁻¹ |  | 1660 ± 120 µM
A12G A14U | 0.000731 ± 0.0002 s⁻¹ |  | 8.27e-05 ± 8e-06 s⁻¹ | 0.000195 ± 1.9e-05 s⁻¹ | 0.000524 ± 6.4e-05 s⁻¹ |  | 5700 ± 2200 µM
A53C G59C | < 1e-05 s⁻¹ | < 1e-05 s⁻¹ | < 1e-05 s⁻¹ |  | < 1e-05 s⁻¹ |  | 
A14C A33U C50U C70A | 3.25e-05 ± 1.4e-05 s⁻¹ |  | 4.2e-05 ± 1.9e-05 s⁻¹ |  |  |  | 
C10U C16U | 1.06e-05 ± 1.7e-06 s⁻¹ |  |  |  |  |  | 
A6U G41A | 1.73e-05 ± 2.5e-06 s⁻¹ | < 1e-05 s⁻¹ | < 1e-05 s⁻¹ |  |  | < 1e-05 s⁻¹ | 
G37U U69G | 4.56e-05 ± 1.6e-05 s⁻¹ |  | 6.88e-05 ± 1.5e-05 s⁻¹ |  |  | 3.74e-05 ± 8.6e-06 s⁻¹ | 
A12G G29A | 0.000356 ± 6.4e-05 s⁻¹ |  | 3.29e-05 ± 1e-05 s⁻¹ | 8.7e-05 ± 1.7e-05 s⁻¹ | 0.000213 ± 4.3e-05 s⁻¹ |  | 7170 ± 1900 µM
U47C G51U | < 1e-05 s⁻¹ |  | < 1e-05 s⁻¹ |  | < 1e-05 s⁻¹ |  | 
A39G A42C | 3.82e-05 ± 3.7e-06 s⁻¹ |  |  | 3e-05 ± 1.4e-05 s⁻¹ | 3.4e-05 ± 8e-06 s⁻¹ |  | 
G29U C61A | 1.26e-05 ± 2.3e-06 s⁻¹ | < 1e-05 s⁻¹ |  |  |  |  | 
G40A | 0.0122 ± 0.00085 s⁻¹ | 0.000363 ± 7.8e-06 s⁻¹ | 0.00372 ± 0.0003 s⁻¹ | 0.00876 ± 0.0005 s⁻¹ | 0.0103 ± 0.00063 s⁻¹ | 0.0012 ± 0.00012 s⁻¹ | 1310 ± 110 µM
U47G U57C | 0.000206 ± 2.4e-05 s⁻¹ |  |  | 5.65e-05 ± 1.2e-05 s⁻¹ | 0.000126 ± 1.3e-05 s⁻¹ |  | 6430 ± 1500 µM
G9U U69G | 1.33e-05 ± 5.4e-06 s⁻¹ |  |  | < 1e-05 s⁻¹ | < 1e-05 s⁻¹ |  | 
A15C G41A | 0.000104 ± 4.7e-06 s⁻¹ |  | 4.65e-05 ± 1.2e-05 s⁻¹ | 8.56e-05 ± 1.8e-05 s⁻¹ | 9.45e-05 ± 1.5e-05 s⁻¹ |  | 744 ± 120 µM
A52U C67G | 0.000281 ± 3.9e-05 s⁻¹ |  | 6.34e-05 ± 7.8e-06 s⁻¹ | 0.000118 ± 1.4e-05 s⁻¹ | 0.000235 ± 2e-05 s⁻¹ |  | 2620 ± 740 µM
C10U C67G | 2.65e-05 ± 6.6e-06 s⁻¹ |  |  | 2.88e-05 ± 1.1e-05 s⁻¹ |  |  | 
U31G C67G | 0.000557 ± 2.6e-05 s⁻¹ |  | 0.00015 ± 1.7e-05 s⁻¹ | 0.000303 ± 5.8e-05 s⁻¹ | 0.00048 ± 4.6e-05 s⁻¹ | 4.63e-05 ± 8.1e-06 s⁻¹ | 1760 ± 150 µM
